Reference: patent US11666658B2, “Rifamycin analogs and antibody-drug conjugates thereof” (Regeneron Pharmaceuticals, Inc., priority 2018, dated 2023)

T1: MSR1-mediated DiI-AcLDL uptake in HEK293.Myc.hMSR1 cells (Homo sapiens, UniProt P21757)
T1 construct: expressed in transfected cells; host or cells: HEK293 (lentiviral transduction, hygromycin selection)
T1 sequence (P21757 1-451): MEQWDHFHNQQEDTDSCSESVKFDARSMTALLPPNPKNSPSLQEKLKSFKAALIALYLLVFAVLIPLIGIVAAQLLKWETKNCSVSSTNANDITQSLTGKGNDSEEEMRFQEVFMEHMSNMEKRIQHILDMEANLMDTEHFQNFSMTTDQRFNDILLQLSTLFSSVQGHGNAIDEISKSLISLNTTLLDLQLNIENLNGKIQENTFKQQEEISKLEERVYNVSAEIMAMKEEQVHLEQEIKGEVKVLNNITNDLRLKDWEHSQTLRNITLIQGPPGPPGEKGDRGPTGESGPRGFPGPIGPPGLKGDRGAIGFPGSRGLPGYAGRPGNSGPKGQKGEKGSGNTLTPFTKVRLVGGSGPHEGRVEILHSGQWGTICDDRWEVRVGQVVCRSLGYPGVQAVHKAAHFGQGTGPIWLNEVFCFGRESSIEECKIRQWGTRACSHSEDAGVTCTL

T2: biot-AGE-BSA binding to His9-hMSR1 (Homo sapiens, UniProt P21757)
T2 construct: human MSR1 extracellular domain expressed with a N-terminal nonahistidine tag; purchased R&D Systems 2708-MS
T2 sequence (P21757 77-451 limits assumed): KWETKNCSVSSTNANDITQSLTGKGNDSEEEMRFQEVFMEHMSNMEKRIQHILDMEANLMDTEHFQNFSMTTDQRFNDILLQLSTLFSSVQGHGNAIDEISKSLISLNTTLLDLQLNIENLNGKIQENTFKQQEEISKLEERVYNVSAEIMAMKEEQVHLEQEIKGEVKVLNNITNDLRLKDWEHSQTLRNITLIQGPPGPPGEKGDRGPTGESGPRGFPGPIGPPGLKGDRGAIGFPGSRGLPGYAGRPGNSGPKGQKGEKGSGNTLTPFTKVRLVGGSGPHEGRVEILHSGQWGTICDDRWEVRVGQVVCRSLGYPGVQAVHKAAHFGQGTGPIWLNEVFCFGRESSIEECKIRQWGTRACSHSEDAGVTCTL

T3: Ox-LDL binding to His9-hMSR1 (Homo sapiens, UniProt P21757)
T3 construct: human MSR1 extracellular domain expressed with a N-terminal nonahistidine tag; purchased R&D Systems 2708-MS
T3 sequence (P21757 77-451 limits assumed): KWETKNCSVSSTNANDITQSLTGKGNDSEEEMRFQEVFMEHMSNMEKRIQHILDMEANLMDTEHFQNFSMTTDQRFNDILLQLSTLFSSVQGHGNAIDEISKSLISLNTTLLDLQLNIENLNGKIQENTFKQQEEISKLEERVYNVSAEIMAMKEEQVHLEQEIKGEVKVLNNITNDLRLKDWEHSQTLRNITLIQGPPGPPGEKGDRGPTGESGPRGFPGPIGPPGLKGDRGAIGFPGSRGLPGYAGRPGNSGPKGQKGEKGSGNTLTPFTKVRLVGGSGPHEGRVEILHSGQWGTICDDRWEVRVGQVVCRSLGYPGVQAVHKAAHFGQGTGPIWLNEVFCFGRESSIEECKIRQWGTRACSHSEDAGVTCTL

T4: Ac-LDL binding to His9-hMSR1 (Homo sapiens, UniProt P21757)
T4 construct: human MSR1 extracellular domain expressed with a N-terminal nonahistidine tag; purchased R&D Systems 2708-MS
T4 sequence (P21757 77-451 limits assumed): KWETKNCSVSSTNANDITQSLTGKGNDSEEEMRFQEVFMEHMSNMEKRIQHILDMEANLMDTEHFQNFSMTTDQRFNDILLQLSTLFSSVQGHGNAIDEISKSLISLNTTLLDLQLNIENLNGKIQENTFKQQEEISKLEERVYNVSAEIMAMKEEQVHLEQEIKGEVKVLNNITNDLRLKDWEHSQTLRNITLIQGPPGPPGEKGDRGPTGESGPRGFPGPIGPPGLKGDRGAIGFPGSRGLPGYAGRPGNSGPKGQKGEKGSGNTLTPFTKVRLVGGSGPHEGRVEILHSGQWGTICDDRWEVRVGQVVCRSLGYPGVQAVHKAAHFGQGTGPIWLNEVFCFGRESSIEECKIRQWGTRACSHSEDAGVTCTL


Experiments:
[1] = biological target: T1, MSR1-mediated DiI-AcLDL uptake in HEK293.Myc.hMSR1 cells; test: Ligand uptake assay, DiI-AcLDL; assay type: cell-based; conditions: for IC50, Dil-Acetylated LDL / % Inhibition, Dil-Acetylated LDL: 10 μg/mL DiI-AcLDL; for % Inhibition, Dil-Acetylated LDL: maximum inhibition of uptake
Description: The resulting cell line, referred to here as “HEK293.Myc.hMSR1”, was selected and maintained in DMEM containing 10% FBS, NEAA, penicillin/streptomycin, L-glutamine, and 100 μg/mL hygromycin.
After 30 minutes, either oxidized or acetylated low-density lipoprotein (LDL) labeled with 1,1′ dioctadecyl-3,3,3′,3′-tetramethylindocarbocyanine perchlorate (referred to as “DiI-OxLDL” or “DiI-AcLDL,” respectively) was added to the cells at a constant concentration of 10 μg/mL. […] Results were analyzed using nonlinear regression (4-parameter logistics) with the Prism 7 program to obtain EC50 and IC50 values. The percentage of inhibition was calculated with the Relative Fluorescent Unit (RFU) values by using the following equation: […]
In the equation, “RFUBaseline” is the fluorescence value from the cells treated with 10 μg/mL ligand without antibodies, “RFUInhibition” is the minimum fluorescence value with for a particular antibody with 10 μg/mL ligand, and “RFUBackground” is the fluorescence value from cells without any ligand or antibodies.

[2] = biological target: T2, biot-AGE-BSA binding to His9-hMSR1; test: Competition sandwich ELISA, biot-AGE-BSA; conditions: anti-MSR1 antibody 300 nM, 400 pM biot-AGE-BSA
Description: (§1) The ability of anti-MSR1 antibodies disclosed herein to block the binding of various ligands to human MSR1 was measured using three competition sandwich ELISA assays. The ligands used in the assays were: (1) acetylated LDL (Ac-LDL), (2) oxidized LDL (Ox-LDL), and (3) advanced glycation end-products of bovine serum albumin (AGE-BSA).
For the assay, recombinant monomeric human MSR1 protein comprised of a portion of the human MSR1 extracellular domain expressed with a N-terminal 9-Histidine tag (SEQ ID NO: 688) (His9-hMSR1; R&D Systems, Cat #2708-MS) was coated at a concentration of […] in PBS on a 96-well microtiter plate overnight at 4° C. for use in competition ELISA assays with Ac-LDL, Ox-LDL, or biotinylated-AGE-BSA (“biot-AGE-BSA”). […] Anti-MSR1 antibodies or isotype control antibodies were serially diluted as appropriate for each tested ligand and added in duplicate for each serial dilution set to microtiter plates coated with His9-hMSR1. Buffer alone was also added to wells on each coat. After 1 hour incubation at room temperature, without wash, a final constant concentration of 50 pM Ac-LDL (Life Technologies/ThermoFisher Scientific, Cat #L-35354), 5 nM or 10 nM Ox-LDL (Alfa Aesar, Cat #J65591), or 400 pM biot-AGE-BSA (R&D Systems, Cat #BT4127) were added to plates with His9-hMSR1, and the plates were incubated for an additional 1 hour at room temperature. (Concentrations of Ac-LDL, Ox-LDL and biot-AGE-BSA for antibody inhibition assays were selected from the approximate midway point within the linear portion of individual binding curves of Ac-LDL, Ox-LDL or biot-AGE-BSA to plate-coated His9-hMSR1.) Wells were washed, and plate-bound Ac-LDL or Ox-LDL were detected with anti-LDL rabbit antibody (Alfa Aesar, Cat #J64398) in combination with anti-rabbit IgG (H+L) specific donkey polyclonal antibodies conjugated with horseradish peroxidase (HRP) (JacksonImmunoResearch, Cat #711-035-152) and biot-AGE-BSA was detected with a streptavidin-HRP (ThermoFisher Scientific, Cat #N200). Plates were developed using TMB substrate solution (BD Biosciences, Cat #51-2606KC & Cat #51-2607KC) according to manufacturer's recommendation and absorbance at 450 nm was measured on a Victor™ Multilabel Plate Reader (PerkinElmer™). This assay was conducted in four different assay runs.
(§2) Data analysis was performed using a sigmoidal dose-response model within Prism™ software (GraphPad). Percent blockade at maximum concentration of the antibody tested in each assay was calculated as an indicator of the ability of the antibodies to block the binding of Ac-LDL, Ox-LDL or biot-AGE-BSA to His9-hMSR1 on the plate relative to the baseline of the assay. In the calculation, binding signal of the same concentrations of Ac-LDL, Ox-LDL, or biot-AGE-BSA used for the assays in the absence of antibody was referenced as 100% binding or 0% blocking, while the baseline of the assay, defined as binding signal of the sample of buffer without MSR1 ligands or antibody, was referenced as 0% binding or 100% blocking. The maximum percent blockade at the highest concentration of antibody tested in each assay are reported for all antibodies. Negative percent blockade numbers reflected higher MSR1 ligands binding to plate coated His9-hMSR1 in the presence of antibodies.

[3] = biological target: T3, Ox-LDL binding to His9-hMSR1; test: Competition sandwich ELISA, Ox-LDL; conditions: anti-MSR1 antibody 500 nM, Ox-LDL 10 nM
Description: as §1
(§3) Anti-MSR1 antibodies or isotype control antibodies were serially diluted as appropriate for each tested ligand and added in duplicate for each serial dilution set to microtiter plates coated with His9-hMSR1. Buffer alone was also added to wells on each coat. […] This assay was conducted in four different assay runs.
as §2, with “antibodies.” for “antibodies. Negative percent blockade numbers reflected higher MSR1 ligands binding to plate coated His9-hMSR1 in the presence of antibodies.”

[4] = biological target: T4, Ac-LDL binding to His9-hMSR1; test: Competition sandwich ELISA, Ac-LDL; conditions: anti-MSR1 antibody 100 nM, 50 pM Ac-LDL
Description: as §1, §3
as §2, with “antibodies.” for “antibodies. Negative percent blockade numbers reflected higher MSR1 ligands binding to plate coated His9-hMSR1 in the presence of antibodies.”

Molecule	inhibition of DiI-AcLDL uptake (in words) [1]	IC50, Dil-Acetylated LDL [1]	% Inhibition, Dil-Acetylated LDL [1]	% Blocking of biot-AGE-BSA binding to His9-hMSR1 [2] [%]	% Blocking of Ox-LDL binding to His9-hMSR1 [3] [%]	% Blocking of Ac-LDL binding to His9-hMSR1 [4] [%]
H1H27734P-N297Q: one of "Twelve anti-MSR1 antibodies" that "bound to parental HEK293 cells"; human IgG1 Fc with N297Q mutation (antibody, V domains shown) VH: EVQLVESRGGLVQPGGSLRLSCAASGFTFSSYAMSWVRQAPGKGLEWVSAISGSGGSTFYADSVKGRFTISRDNSKNTVYLQMNSLRAEDTAVYYCAKALVLRFLEWLGDYWGQGTLVTVSS VL: DIQMTQSPSTLSASVGDRVTITCRASQSISSWLAWFQQKPGKAPKLLIYKASSLESGVPSRFSGSGSGTEFTLTISSLQPDDFATYYCQQYKSYWTFGQGTKVEIKR	no inhibition of DiI-AcLDL uptake	no inhibition	no inhibition	–	–	–
H1H21227N-N297D: "The 21227N antibody was also produced as a third version with a N297D mutation" (antibody, V domains shown) VH: QVQLVQSGAEVKKPGASVKVSCKVSGYTLTELSIHWVRQVPGKGLEWMGGFDPEEGETIFAQEFRDRVTLTEDTSPDTAYMELSSLKSEDAAVYYCTTPRYCNNGICYDYWGQGTLVTVSS VL: DIQMTQSPSSLSASVGDRVTITCRASQSISNYLNWYQQKPGKAPKLLIYTASSLQSGVPSRFSGSGSGTDFTLTISSLQTEDFATYYCQQSYSNFPITFGQGTRLEIKR	–	–	–	97	99	101
H1H21231N-N297Q: modified version of "21231N (H1H21231N-N297Q) anti-MSR1 antibodies" with "a N297Q single point mutation" (antibody, V domains shown) VH: EVQLVESGGGLVQPGGSLRLSCAASGFTFSDHYMDWVRQAPGKGLEWVGRTRNKANSHTTEYTASVTGRFTISRDDSRNSLYLQMNSLKTEDTAVYYCVRAGIIGTLFDYWGQGTLVTVSS VL: DIQMTQFPSSLSASVGDRVTITCRASQSISSFLNWFQQKPGKAPKFLIYAASSLQSGVPSRFSGSGSGTDFTLTISSLQPEDFATYYCQQSYSSPPITFGQGTRLEIKR	–	–	–	−50	26	−60
H1H21231N: "Three anti-MSR1 antibodies ... (21227N, 21231N, 21234N) were produced with the original human Fcγ portion" (antibody, V domains shown) VH: EVQLVESGGGLVQPGGSLRLSCAASGFTFSDHYMDWVRQAPGKGLEWVGRTRNKANSHTTEYTASVTGRFTISRDDSRNSLYLQMNSLKTEDTAVYYCVRAGIIGTLFDYWGQGTLVTVSS VL: DIQMTQFPSSLSASVGDRVTITCRASQSISSFLNWFQQKPGKAPKFLIYAASSLQSGVPSRFSGSGSGTDFTLTISSLQPEDFATYYCQQSYSSPPITFGQGTRLEIKR	–	–	–	−44	22	−62

The remaining lines, values ahead:

inhibition of DiI-AcLDL uptake (in words) [1]	IC50, Dil-Acetylated LDL [1]	% Inhibition, Dil-Acetylated LDL [1]	% Blocking of biot-AGE-BSA binding to His9-hMSR1 [2] [%]	% Blocking of Ox-LDL binding to His9-hMSR1 [3] [%]	% Blocking of Ac-LDL binding to His9-hMSR1 [4] [%]	Molecule
no inhibition of DiI-AcLDL uptake	no inhibition	no inhibition	–	–	–	H1H27739P-N297Q: anti-MSR1 antibody; "antibodies H1H27739P-N297Q and H1H27734P-N297Q showed no inhibition of DiI-AcLDL uptake" (antibody, V domains shown) VH: EVQLVESGGGLVQPGGSLRLSCTASGFTFSSYAMSWVRQAPGKGLEWVSAISGTGSSTYFTDSVKGRFAISRDNSKNTLYLQMNSLRAEDTAVYYCAKDGEWLSTVTLFDYWGQGTLVTVSS VL: EIVMTQSPATLSVSPGERATLSCRASQSVSSNLAWYQQKPGQAPRLLIYGASTRATGIPARFSGSGSGTDFTLTISSLQSEDFALYYCQQYFIWPPHPTFGPGTKVDIKR
no inhibition of DiI-AcLDL uptake	no inhibition	no inhibition	–	–	–	H2aM21229N: one of "Twelve anti-MSR1 antibodies"; "an 'H2aM' antibody has a mouse IgG2a Fc" (antibody, V domains shown) VH: EVQLVESGGGLVKPGGSLRLSCAASGFTFSRYSMNWVRQAPGKGLEWVSSISSSSSYIYYGDTVKGRFTISRDNAKKSLYLQMNSLRAEDTAVYYCVRDRGQLVLYFDYWGQGTLVTVSS VL: DIQMTQSPASLSTSIRDRVTITCRASLSISSFLNWFQQRPGKAPKLLIYVASNLQSGVPSRFSDSGSGTDFTLTISSLQPEDFATYYCQQNYSTPPITFGQGTRLEIK
